Measured values as given in patent publication US20090142784.

Columns and labels:
[1] = system: T1, LRRKtide peptide (RLGRDKYKTLRQIRQ)
T1 sequence: RLGRDKYKTLRQIRQ

[2] = system: T2, LongLRRKtide (RLGRDKYKTLRQIRQGNTKQR)
T2 sequence: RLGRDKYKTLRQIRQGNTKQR

## GST-LRRK2[1326-2527]
[1]
  Km (phosphorylation of LRRKtide, P81 paper 32P assay): a similar Km of approximately 200 µM
[2]
  affinity relative to LRRKtide (from phosphorylation with LRRK2): The LRRK2 affinity for the longLRRKtide is ten fold more than that that of LRRKtide
